Patent US8003360B2, “Debaryomyces castellii phytase” (Adisseo France S.A.S., priority 2005, dated 2011)

Experiments:
[1] = tested on: D. castellii phytase; test: Influence of effectors on phytase activity; assay type: biochemical, Debaryomyces castellii
[2] = biological target: Debaryomyces castellii CBS 2923 phytase, native (wild type), SEQ ID No. 2 (Schwanniomyces capriottii, UniProt A2TBB4); test: Influence of effectors on the phytase activity; assay type: biochemical; conditions: Table 3
Protocol: (§1) The amount of phosphate released is measured by colorimetery. The visualizing solution, prepared extemporaneously, contains iron sulphate (380 mM, 1 volume) and ammonium heptamolybdate (12 mM, 4 volumes). The absorbance at 700 nm is measured after 30 minutes of visualization at ambient temperature (1 volume of reaction medium+1 volume of visualizing solution), using a UV/visible spectrophotometer (Beckman DU 530).

[3] = tested on: Schwanniomyces occidentalis phytase; conditions: Segueilha et al., 1992; cited from earlier work
[4] = tested on: Schwanniomyces occidentalis phytase; conditions: Segueilha et al., 1992; cited from earlier work; remark: listed apart in the source
[5] = biological target: recombinant Debaryomyces castellii CBS 2923 phytase (recPhyt, expressed in Pichia pastoris), SEQ ID No. 2 (Schwanniomyces capriottii, UniProt A2TBB4); test: Hydrolysis of inositol phosphates by the recombinant phytase (chromatogram); assay type: biochemical; conditions: InsP3 compared with InsP4, InsP5 and InsP6
Protocol: (§2) Samples are taken at various times for 6 hours. The reaction is stopped by heating at 100° C. (10 minutes).
(§3) J. Agric. Food Chem. 45, 431-436; Türk, M., Sandberg, A. S., Carlsson, N. G. and Andlid, T. (2000) Inositol hexaphosphate hydrolysis by baker's yeast. Capacity, kinetics, and degradation products. J. Agric. Food Chem. 48, 100-104). […] This system makes it possible to detect the Ins P2 to Ins P6, but only the various isomers of Ins P4 and Ins P5 can be separated.
See Example 1, 7.5 and 7.6.

[6] = Phytase activity as a function of temperature; assay type: biochemical; conditions: reaction of phytate hydrolysis
Protocol: FIG. 2: Activity of the D. castellii phytase as a function of temperature. The activity is measured at pH 4, at 37° C. for 20 minutes.
(§4) The effect of pH on the phytase activity is determined using the following buffer solutions: 200 mM glycine-HCl, pH 2-3.5; 200 mM sodium acetate-acetic acid, pH 3.5-7; and 200 mM tris-HCl, pH 7-9. The reactions are carried out at +37° C. using the phytate as substrate. The optimum temperature is determined by varying the temperature from +30° C. to +80° C. […] After the heat treatment, the mixture is cooled in ice and the phytase activity is determined using the phytate as substrate.
The optimum temperature is determined on the native phytase, by measuring the phytase activity at various temperatures: from 30 to 80° C. (FIG. 2).

[7] = Heat denaturation / heat stability of the phytase; assay type: physicochemical
Protocol: FIG. 3: Heat denaturation of the D. castellii phytase. […] The activity is then measured at 37° C. for 20 min.
as §4
It is denatured above 68° C., with a 70% loss of activity after one hour at 70° C. The energy for activation of the denaturation, calculated by means of the Arrhenius representation, is 606 kJ/mol.

[8] = Storage stability of the phytase at -20° C. at various pHs; assay type: physicochemical
[9] = pH-stability and temperature-stability of the phytase; assay type: physicochemical; conditions: for denaturation: 1 hour
Protocol: FIG. 4: Study of the pH-stability and temperature-stability. The phytase activity of D. castellii is measured after treatment of the extract at various pHs for 1 hour at two temperatures (40° C. or 60° C.). The activity is measured at pH 4.
The phytase activity is measured after incubation of the enzyme at 2 temperatures (40 and 60° C.) in buffers whose pH is between 2 and 8 (FIG. 4). […] On the other hand, in the range 3 to 7, from 80 to 100% of activity is conserved at 40° C. At 60° C., the phytase is more highly denatured at pH 3 and pH 8.

[10] = tested on: Debaryomyces castellii CBS2923 phytase; test: Influence of the environment (additives, calcium, buffer molarity) on thermostability of the phytase; assay type: physicochemical; conditions: control: 250 mM acetate buffer pH 4, 1 mM calcium chloride, no additive
Protocol: At the end of treatment, the extract is cooled in water at +4° C. […] Three types of elements are tested: • sugars or sugar alcohol: sucrose, lactose, trehalose, arabinose, glycerol, • the absence of calcium, • the molarity of the buffer. […] At the end of treatment, the extract is cooled in water to +4° C. […] Materials and Methods).

[11] = Specific phytase activity by phytate hydrolysis; assay type: biochemical; conditions: native D. castellii phytase, purification steps
Protocol: The protein content is determined by the Bradford method (Bradford, M. (1976) A rapid and sensitive method for the quantification of microgram quantities of proteins utilizing the principle of protein-dye binding. Anal. Biochem. 72, 248-254). (Biorad Protein Assay Dye Reagent Concentrate, BIORAD 500-0006), the absorbance is measured at 595 nm (Beckman DU 530 UV/visible spectrophotometer). The calibration is carried out with a bovine serum albumin range.
One enzymatic unit (U) is defined as the amount of enzyme which releases one μmol of inorganic phosphate in one minute.
as §1

[12] = Hydrolysis of phytic acid followed over time (HPIC, phosphate assay); assay type: biochemical; conditions: after 300 minutes of hydrolysis, pH 4, 0.6 U/ml
Protocol: as §2, §3
The hydrolysis conditions are described in Materials and Methods. The appearance of the various Ins Pn is monitored over time. After 15 minutes of hydrolysis, Ins P6 has virtually disappeared, 4 major peaks are detected and correspond to Ins (1,2,4,5,6) P5, Ins (1,2,5,6) P4, and peaks of Ins P3, Ins P2 and Ins P1 not identified by this method (FIG. 7). The assignment of the Ins P5 and Ins P4 is confirmed by the addition of authentic inositol samples. After 120 minutes of hydrolysis, the Ins P3 and Ins P1 peaks are predominant. This could reflect a much slower rate of hydrolysis of Ins P3 compared with Ins P4, 5 and 6. […] The enzyme releases all the phosphates. The characterization of the Ins Pn fractions separated by chromatography is carried out by NMR analysis.

[13] = Hydrolysis kinetics of InsP6 followed by NMR; assay type: biochemical
Protocol: The time period between two spectra is 23 minutes. After an overnight period, 20 μl of enzyme were added in order to accelerate the reaction. After 16 h, the hydrolysis is complete and the spectrum characteristic of inositol is obtained (top spectrum). These kinetics clearly show the successive appearance of InsP5, of InsP4 and of InsP3.
FIG. 10: Faster kinetics making it possible to follow the complete hydrolysis of InsP6 (600 MHz, 17° C., 500 μl D2O, 3.8 mM of InsP6, pH 4.0, 5 μl of enzyme). A spectrum was recorded every 3 min for 20 h (400 spectra). After 10 hours, the hydrolysis is virtually complete. The spectra plotted correspond to one spectrum out of 10 (30 min between two spectra). Some characteristic signals are annotated.
The sample used to follow the hydrolysis by NMR is prepared from a stock solution of InsP6/phosphate buffer, 96/700 mM in D2O. […] Depending on the desired rate of hydrolysis, a greater or smaller amount of enzyme (1 to 20 μl of the stock solution at 3 U/ml) is added. The kinetics are followed at 17° C. by recording a spectrum (32 scans) every 3 minutes for 20 hours (400 spectra). Using the spectra characteristic of the various inositol phosphates determined previously, their appearance and disappearance can be followed over the entire kinetics.
Depending on the temperature (in this case 17° C.) and on the concentration of enzyme, kinetics can be slow (1 μl of enzyme) and the appearance of the first intermediates readily observed. It is under these conditions that the spectral characteristics of InsP5 were obtained and that the successive appearance of Ins P5, Ins P4 and Ins P3 is clearly seen.
In the presence of 5 μl of enzyme, the formation of Ins P2, Ins P1 and inositol is observed. In the intermediate phase, the complexity of the spectra obtained accounts for the mixture of the Ins Pns. After hours, the hydrolysis is not complete. In the presence of 20 μl of enzyme, complete hydrolysis was obtained in approximately 4 hours. […]

In the case of O=C(O)c1cc[c]([Hg][Cl])cc1 [PCMB], the “% activity” value ([1]; effector 3 mM, phytate control = 100) is reported as 94.5%, the “effect on phytase activity” value ([1]; inhibitors tested, see Table 3) is reported as “absence of effect” and the “effect on the phytase activity (in words)” value [2] is reported as “not sensitive”. For the same molecule, the “inhibition of the activity (in words)” value [3] was “greatly inhibits” and the “effect on phytase activity” value [4] was “greatly inhibits”.

For InsP3, the “affinity (in words)” value [5] was “weaker affinity”.

B1: D. castellii phytase: Debaryomyces castellii CBS 2923 phytase of SEQ ID No. 2, a secreted glycosylated 3-phytase (protein, listed as Debaryomyces castellii)
chain: MVSVSKLINNGLLLVGQGAYQDLASPQQASVEQYNIIRFLGGAAPYIQNKGFGISTDIPDQCTLEQVQLFSRHGERYPSTGSGKKYKAVYEKLMSYNGTFKGELAFLNDDYEYFVPDSVYLEKETSPKNSDSIYAGTTDAMKHGIAFRTKYGELFDTNDTLPVFTSNSGRVYQTSQYFARGFMGDDFSNDTVKTNIISEDADMGANSLTPRDGCFNYNENANTAIVDEYTTEYLTKALNRFKASNPGLNITEDDVSNLFGYCAYELNVKGASPMCDIFTNEEFIQYSYSVDLDDYYSNSAGNNMTRVIGSTLLNASLELLNHDKNENKIWLSFTHDTDIEIFHSAIGILIPDEDLPVDYTPFPSPYSHVGITPQGARTIIEKYACGNESYVRYVINDAVIPIKKCSSGPGFSCNLNDYNDYVAERVAGTNYVEQCGNNNASAVTFYWDYETTNYTASLINS
modifications: glycosylated
With B1 the “activation energy calculated according to the Arrhenius representation” value [6] was 38 kJ/mol, the loss of activity ([7]; after one hour at 70° C.) was 70% and the “energy for activation of the denaturation (Arrhenius representation)” value ([7]; heat denaturation) was 606 kJ/mol. For the same molecule, the “temperature above which the enzyme is denatured” value ([7]; heat denaturation study) was “above 68 °C”, the “temperature up to / below which the enzyme is stable” value ([7]; heat denaturation study) was “up to 66 °C” and the “temperature at which the enzyme is stable for one hour” value ([7]; in 125 mM acetate buffer, pH 4) was 66 °C. For the same molecule, the “temperature at which the enzyme is stable for one hour” value ([7]; in water) was 60 °C, the denaturation after storage ([8]; 21 days at -20° C., pHs of less than 5) was “completely denatured” and the denaturation after storage ([8]; 67 days at -20° C., pHs of between 5 and 7) was “no denaturation”. The “activity after 1 hour of contact” value ([9]; pH 2 and pH 8, 40 and 60° C.) was “complete loss of activity”, the denaturation ([9]; pH 8, acetate buffer) was “complete” and the denaturation ([9]; pH 8, tris HCl buffer) was 50%. For the same molecule, the “activity after 1 h at 20° C.” value [10] was 99, the “activity after 1 h at 66.5° C.” value [10] was 47 and the Specific activity [11] was 156 U/mg. The “amount of phosphate assayed as share of the potential phosphates of the phytate molecule” value [12] was 100%, the “time after which hydrolysis of InsP6 is complete” value ([13]; 1.7 mM InsP6, pH 4.0, 17° C., 1 μl enzyme, 20 μl added after an overnight period) was 16 h and the “time after which hydrolysis of InsP6 is virtually complete” value ([13]; 3.8 mM InsP6, pH 4.0, 5 μl of enzyme, 17° C.) was about 10 h. The “time to complete hydrolysis of InsP6” value ([13]; 20 μl of enzyme, 17° C.) was “approximately 4 hours”.
